We go through 3 variants from article PMC5750471.

Sequences and labels used below:
B1: TREM2 (triggering receptor expressed on myeloid cells 2) with a Myc-tag at the C terminus, wild type [human] / presenilin 1 (PS1), wild type [not stated] (parent)
chain 1: HNTTVFQGVAGQSLQVSCPYDSMKHWGRRKAWCRQLGEKGPCQRVVSTHNLWLLSFLRRWNGSTAITDDTLGGTLTITLRNLQPHDAGLYQCQSLHGSEADTLRKVLVEVLADPLDHRDAGDLWFPGESESFEDAHVEHSISRSLLEGEIPFPPTSILLLLACIFLIKILAASALWAAAWHGQKPGTHPPSELDCGHDPGYQLQTLPGLRDT
chain 2: not shown

Variants of B1 are the subject of the experiment. The experiment in a line: co-immunoprecipitation with PS1 antibody Ab14, immunoblot band quantification. The conditions noted are these: with presenilin 1 (PS1), HEK293 cells stably expressing Myc-tagged TREM2, transfected with PS1, n=3, read off a plot. (Immunoblotting shows a protein as a band on a membrane.)
For chain 1 T48M, the ratio to parent (arbitrary unit) came to 0.68. chain 1 T78K: the ratio to parent (arbitrary unit) was 1.2. Turning to chain 1 R29H, the ratio to parent (arbitrary unit) amounted to 1.2.
